Results reported in patent US20210162000A1 (INSTITUT DE CARDIOLOGIE DE MONTREAL, published 2021).

B1: Recombinant SEQ ID NO 6, GRP94 CBD-CT (aa 652-799), His6 tag purified from E. coli (other)
chain: YGWSGNMERIMKAQAYQTGKDISTNYYASQKKTFEINPRHPLIRDMLRRIKEDEDDKTVLDLAVVLFETATLRSGYLLPDTKAYGDRIERMLRLSLNIDPDAKVEEEPEEEPEETAEDTTEDTEQDEDEEMDVGTDEEEETAKESTAE
notes: also called NO; 43; GRP94 CDB-CT domain; not shown: His6 tag from pET24b(+)
B2: Secretable ~20 kDa HA-tagged protein containing the CBD and C-terminal domains of GRP94 (CBD-CT; SEQ ID NO 46) (other)
chain: YGWSGNMERIMKAQAYQTGKDISTNYYASQKKTFEINPRHPLIRDMLRRIKEDEDDKTVLDLAVVLFETATLRSGYLLPDTKAYGDRIERMLRLSLNIDPDAKVEEEPEEEPEETAEDTTEDTEQDEDEEMDVGTDEEEETAKESTAEYPYDVPDYA
B3: SEQ ID NO 64, alanine-scanning mutant of GRP94 lacking KDEL (taken as AA1) (other)
chain: DDEVDVDGTVEEDLGKSREGSRTDDEVVQREEEAIQLDGLNASQIRELREKSEKFAFQAEVNRMMKLIINSLYKNKEIFLRELISNASDALDKIRLISLTDENALSGNEELTVKIKCDKEKNLLHVTDTGVGMTREELVKNLGTIAKSGTSEFLNKMTEAQEDGQSTSELIGQFGVGFYSAFLVADKVIVTSKHNNDTQHIWESDSNEFSVIADPRGNTLGRGTTITLVLKEEASDYLELDTIKNLVKKYSQFINFPIYVWSSKTETVEEPMEEEEAAKEEKEESDDEAAVEEEEEEKKPKTKKVEKTVWDWELMNDIKPIWQRPSKEVEEDEYKAFYKSFSKESDDPMAYIHFTAEGEVTFKSILFVPTSAPRGLFDEYGSKKSDYIKLYVRRVFITDDFHDMMPKYLNFVKGVVDSDDLPLNVSRETLQQHKLLKVIRKKLVRKTLDMIKKIADDKYNDTFWKEFGTNIKLGVIEDHSNRTRLAKLLRFQSSHHPTDITSLDQYVERMKEKQDKIYFMAGSSRKEAESSPFVERLLKKGYEVIYLTEPVDEYCIQALPEFDGKRFQNVAKEGVKFDESEKTKESREAVEKEFEPLLNWMKDKALKDKIEKAVVSQRLTESPCALVASQYAASAAAAAIMKAQAYQTGKDISTNYYASQKKTFEINPRHPLIRDMLRRIKEDEDDKTVLDLAVVLFETATLRSGYLLPDTKAYGDRIERMLRLSLNIDPDAKVEEEPEEEPEETAEDTTEDTEQDEDEEMDVGTDEEEETAKESTAEYPYDVPDYA
B4: SEQ ID NO 65, alanine-scanning mutant of GRP94 lacking KDEL (taken as AA2) (other)
chain: DDEVDVDGTVEEDLGKSREGSRTDDEVVQREEEAIQLDGLNASQIRELREKSEKFAFQAEVNRMMKLIINSLYKNKEIFLRELISNASDALDKIRLISLTDENALSGNEELTVKIKCDKEKNLLHVTDTGVGMTREELVKNLGTIAKSGTSEFLNKMTEAQEDGQSTSELIGQFGVGFYSAFLVADKVIVTSKHNNDTQHIWESDSNEFSVIADPRGNTLGRGTTITLVLKEEASDYLELDTIKNLVKKYSQFINFPIYVWSSKTETVEEPMEEEEAAKEEKEESDDEAAVEEEEEEKKPKTKKVEKTVWDWELMNDIKPIWQRPSKEVEEDEYKAFYKSFSKESDDPMAYIHFTAEGEVTFKSILFVPTSAPRGLFDEYGSKKSDYIKLYVRRVFITDDFHDMMPKYLNFVKGVVDSDDLPLNVSRETLQQHKLLKVIRKKLVRKTLDMIKKIADDKYNDTFWKEFGTNIKLGVIEDHSNRTRLAKLLRFQSSHHPTDITSLDQYVERMKEKQDKIYFMAGSSRKEAESSPFVERLLKKGYEVIYLTEPVDEYCIQALPEFDGKRFQNVAKEGVKFDESEKTKESREAVEKEFEPLLNWMKDKALKDKIEKAVVSQRLTESPCALVASQYGWSGNMERIMKAQAYATGKAISTNAAASQKKTFEINPRHPLIRDMLRRIKEDEDDKTVLDLAVVLFETATLRSGYLLPDTKAYGDRIERMLRLSLNIDPDAKVEEEPEEEPEETAEDTTEDTEQDEDEEMDVGTDEEEETAKESTAEYPYDVPDYA

How the values were obtained:
[1] = target: T1, Recombinant PCSK9-His6 of the Circulex in vitro competitive binding assay (human, UniProt Q8NBP7 31-692, limits assumed); test: solid phase PCSK9-LDLR EGF-AB in vitro competitive binding assay (Circulex CY-8150), 100 ng (13.46 nM) PCSK9-His6 with increasing SEQ ID NO. 6
T1 construct: also called WT PCSK9; wild-type human recombinant His-tagged PCSK9; not shown: His tag
Procedure: Solid phase PCSK9-LDLR epidermal growth factor precursor homology domain A and B (LDLR EGF-AB) in vitro competitive binding assay (Circulex; Cat. #CY-8150) was performed with 100 ng (13.46 nM) of recombinant PCSK9-His6 together with increasing amount of recombinant SEQ ID NO. 6 according to manufacturer's recommendations. Using this in vitro competitive assay, SEQ ID NO.

[2] = target: T2, Full-length human V5-tagged PCSK9 (human, UniProt Q8NBP7 31-692, limits assumed); test: co-IP from transfected HEK293 cells, immunoblot
T2 construct: Expressed from pIRES2-EGFP in transfected cells. proPCSK9 and mature forms were both seen in the IPs; also called PCSK9-V5; wild-type PCSK9-V5
Procedure: All other Co-IP experiments were performed as described without the cross-linking step and in SDS-deprived RIPA buffer. HA-tagged proteins and GRP94 were immunoprecipitated with mouse anti-HA-tag (1:500; Cat. #H3663, Sigma-Aldrich) or rat anti-Grp94 (9G10, 1:1000; Cat. #ADI-SPA-850, Enzo Life Sciences).
We next decided to map GRP94 domain(s) important for PCSK9 protein-protein interaction. The overall domain structure of GRP94 includes a signal polypeptide (amino acids; aa1-21) followed by a N-terminal enzymatic ATP-binding domain (aa22-651), client-binding domain (CBD; aa652-678), C-terminal dimerization domain (aa679-799) and a KDEL polypeptide sequence (aa800-803) allowing retention of GRP94 in the endoplasmic reticulum. (Dollins et al., 2007; Maki et al., 1990; Wu et al., 2012) Thus, we first generated cDNA constructs encoding secretable HA-tagged forms of human GRP94 lacking its C-terminal KDEL polypeptide (SEQ ID. NO. 66; FIG. 2). HEK293 cells were transfected without or with SEQ ID. NO. 66 in absence or presence of PCSK9-V5 (FIG. 2a). […] NO. 66 is well expressed (Input; IB: HA) and secreted into media and that SEQ ID. NO. 66 interacts in complex with PCSK9 following immunoprecipitation (IP: V5; FIG. 2b). […] It was reported that a 27 aa C-terminal hydrophobic loop structure within GRP94 client-binding domain (CBD, amino acids aa652-678; ⁶⁵²[…], SEQ ID. NO. 4) was important for folding and interaction with Toll-like receptors and integrins. (Wu et al., 2012) Deletion or alanine-scan mutations in SEQ ID. NO. […] (Wu et al., 2012) Similarly, we generated two mutated constructs in which critical residues within the GRP94-CBD domain where mutated into alanine (AA1: ⁶⁵²[…], SEQ ID. NO. 78 and AA2: ⁶⁵²[…], SEQ ID. NO. 79). HEK293 cells were transfected with either an empty vector (−) or with SEQ ID. NO. 66, 64 or 65 constructs in presence or absence of PCSK9-V5 (FIG. 2b).

T2 sequence (Q8NBP7 31-692 limits assumed): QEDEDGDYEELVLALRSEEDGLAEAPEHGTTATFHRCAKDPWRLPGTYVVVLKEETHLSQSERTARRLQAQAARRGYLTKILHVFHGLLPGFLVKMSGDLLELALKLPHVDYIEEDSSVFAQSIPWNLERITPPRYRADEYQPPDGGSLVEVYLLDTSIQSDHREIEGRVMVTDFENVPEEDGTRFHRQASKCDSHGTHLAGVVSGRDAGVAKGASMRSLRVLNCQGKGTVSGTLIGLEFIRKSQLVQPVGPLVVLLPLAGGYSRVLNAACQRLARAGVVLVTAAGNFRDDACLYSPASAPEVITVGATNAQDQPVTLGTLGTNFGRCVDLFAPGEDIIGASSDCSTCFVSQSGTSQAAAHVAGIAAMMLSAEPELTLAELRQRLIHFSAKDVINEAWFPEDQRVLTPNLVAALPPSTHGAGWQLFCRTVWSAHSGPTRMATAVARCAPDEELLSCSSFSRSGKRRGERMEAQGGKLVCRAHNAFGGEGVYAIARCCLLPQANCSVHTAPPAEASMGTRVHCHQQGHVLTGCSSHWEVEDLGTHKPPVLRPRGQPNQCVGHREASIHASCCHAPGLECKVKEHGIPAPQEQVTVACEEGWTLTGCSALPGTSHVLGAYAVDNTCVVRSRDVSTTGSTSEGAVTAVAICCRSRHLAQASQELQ
T1 sequence (Q8NBP7 31-692 limits assumed): as above

Binder	IC50 [1] [nM]	binding result [2]
B1	~113	–
B2	–	binds
B3	–	no binding
B4	–	no binding
